The first assay addresses human V158 FcγRIIIa extracellular region fused with glutathione S-transferase (GST) (human) (UniProt P08637). The assay can be described thus: AlphaScreen competition. Background: In Alpha technology, singlet oxygen from a donor bead excites a nearby acceptor bead.
Sequence of human V158 FcγRIIIa extracellular region fused with glutathione S-transferase (GST) (human) (P08637 17-208 F176V): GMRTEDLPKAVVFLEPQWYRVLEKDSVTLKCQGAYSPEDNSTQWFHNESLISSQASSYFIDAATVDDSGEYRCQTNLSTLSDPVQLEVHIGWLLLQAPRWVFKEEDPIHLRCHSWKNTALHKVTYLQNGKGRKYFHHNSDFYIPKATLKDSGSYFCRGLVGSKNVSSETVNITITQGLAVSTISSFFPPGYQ
Substance “S239N/S298A/I332E trastuzumab (antibody)” yielded a FcγRIIIa Fold of 32.1 fold vs WT. E333T trastuzumab (antibody) displayed a FcγRIIIa Fold of 0.78 fold vs WT. Substance N276R trastuzumab (antibody) registered a FcγRIIIa Fold of 0.66 fold vs WT. On the same count and under the same terms, next, Y278W trastuzumab (antibody): 0.41 fold vs WT; V302I trastuzumab (antibody): 1.01 fold vs WT; “S239D/A330Y/I332E/V240I trastuzumab (antibody)”: 28 fold vs WT. For K274L trastuzumab (antibody), the FcγRIIIa Fold is 1.09 fold vs WT. “P230A/E233D/I332E trastuzumab (antibody)” displayed a FcγRIIIa Fold of 1.87 fold vs WT. Same read-out and setting: the value for K274T trastuzumab (antibody) was 1.41 fold vs WT; that for S324V trastuzumab (antibody) was 1.17 fold vs WT. For the substance “S239N/A330L/I332E trastuzumab (antibody)”, the FcγRIIIa Fold was found to be 12.9 fold vs WT.

In turn, “V264I/S298A/I332E trastuzumab (antibody)” had a FcγRIIIa Fold of 16.5 fold vs WT.

On to E333H trastuzumab (antibody), for which the FcγRIIIa Fold came to 0.75 fold vs WT. On the same count and under the same terms, the value for E318R trastuzumab (antibody) was 1.06 fold vs WT; that for K326I trastuzumab (antibody) was 1.43 fold vs WT; that for K326T trastuzumab (antibody) was 1.88 fold vs WT. Same read-out and setting: next, F275W trastuzumab (antibody): 1.11 fold vs WT; N276Y trastuzumab (antibody): 0.56 fold vs WT.

The substance T335D trastuzumab (antibody) yielded a FcγRIIIa Fold of 2.79 fold vs WT. The same measure, in the same setting: next, “S239D/I332E/A330I trastuzumab (antibody)”: 59.1 fold vs WT; K274E trastuzumab (antibody): 6.11 fold vs WT; “S239D/A330Y/I332E/V264T trastuzumab (antibody)”: 17.7 fold vs WT. Same read-out and setting: the value for “S239D/A330Y/I332E/L234I trastuzumab (antibody)” was 22.4 fold vs WT. On the same count and under the same terms, next, N276S trastuzumab (antibody): 0.41 fold vs WT; “S239N/A330Y/I332E trastuzumab (antibody)”: 14.2 fold vs WT. In turn, T335R trastuzumab (antibody) came in with a FcγRIIIa Fold of 2.58 fold vs WT. On to Y278T trastuzumab (antibody), for which the FcγRIIIa Fold amounted to 1.87 fold vs WT. On the same count and under the same terms, next, Y278E trastuzumab (antibody): 0.9 fold vs WT; “S239D/A330Y/I332E/K326E trastuzumab (antibody)”: 64.1 fold vs WT; “S239D/V264I/I332E trastuzumab (antibody)”: 36.6 fold vs WT.

Regarding E283R trastuzumab (antibody), the FcγRIIIa Fold amounted to 0.67 fold vs WT. For the substance V240I/V266I trastuzumab (antibody), the FcγRIIIa Fold amounted to 1.72 fold vs WT. The same measure, in the same setting: next, T335Y trastuzumab (antibody): 1.56 fold vs WT; P230A/E233D trastuzumab (antibody): 0.92 fold vs WT. Still for that read-out and setting: the value for V323I trastuzumab (antibody) was 0.83 fold vs WT; that for E272Y trastuzumab (antibody) was 8.7 fold vs WT; that for S324R trastuzumab (antibody) was 0.71 fold vs WT. Still for that read-out and setting: the value for E233D trastuzumab (antibody) was 0.85 fold vs WT; that for N276E trastuzumab (antibody) was 0.87 fold vs WT. P230A trastuzumab (antibody) registered a FcγRIIIa Fold of 1.09 fold vs WT. In the case of K274Y trastuzumab (antibody), the FcγRIIIa Fold was found to be 1.06 fold vs WT. The same measure, in the same setting: next, S324Y trastuzumab (antibody): 0.98 fold vs WT; K274R trastuzumab (antibody): 1.41 fold vs WT. Same read-out and setting: the value for “S239D/A330Y/I332E/L235D trastuzumab (antibody)” was 7.04 fold vs WT. Same read-out and setting: the value for V273I trastuzumab (antibody) was 0.79 fold vs WT. Regarding S239D/I332E alemtuzumab (antibody), the FcγRIIIa Fold was determined as 56.1 fold vs WT.

For another assay, the target named is human FcγRIIb extracellular region, GST-tagged (human) (UniProt P31994). Nature of the assay: AlphaScreen competition.
Sequence of human FcγRIIb extracellular region, GST-tagged (human) (P31994 43-217): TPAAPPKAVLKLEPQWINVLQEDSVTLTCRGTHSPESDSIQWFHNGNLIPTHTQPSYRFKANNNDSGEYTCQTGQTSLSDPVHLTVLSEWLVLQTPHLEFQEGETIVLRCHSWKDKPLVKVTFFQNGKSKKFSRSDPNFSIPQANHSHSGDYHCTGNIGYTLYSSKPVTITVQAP
The substance “S239N/S298A/I332E trastuzumab (antibody)” had a FcγRIIb Fold of 5.15 fold vs WT. S239D/I332E trastuzumab (antibody) yielded a FcγRIIb Fold of 19.7 fold vs WT.

Substance “S239D/V264I/I332E trastuzumab (antibody)” yielded a FcγRIIb Fold of 14.4 fold vs WT.

Another assay has as its target FcγRIIIa on human PBMC effector cells (human) (UniProt P08637). The assay can be described thus: cell-based or functional assay.
Consider V264I/I332E alemtuzumab (antibody), for which the ADCC EC50, DoHH-2 targets, V158/F158 PBMCs was 4 ng/mL and the ADCC log(EC50), DoHH-2 targets, V158/F158 PBMCs is 0.6 log(ng/ml). In the case of S239D/I332E alemtuzumab (antibody), the ADCC EC50, DoHH-2 targets, V158/F158 PBMCs came out at 3 ng/mL; the ADCC Fold Improvement Over WT worked out at 3.3 fold; the ADCC log(EC50), DoHH-2 targets, V158/F158 PBMCs was 0.49 log(ng/ml).
